Experimental data reported in the DeepSol protein solubility set.

Experiment: soluble on expression in E. coli; label from the status in PepcDB or PDB records

Sequence	soluble on expression in E. coli
MLSEEDVHTNSYAGRTVAVMEQPDLFSDDCDEINLGNEDTPPSKLRLHTTEEPKESSSPAVINSIEDHDQYVGNDNHYAQISPEPALSNFKVTMREFEKRGDGMNAYIVYKLETEVSGVVGYTKQHYETWRRFSDFLGLHGKIVEKYLAKGIVIPQPPEKSISALTKTKTNSDPAMSREVGIQRARQLERYICRLIQHPRMRNDCDVRDFLTIESDLPKAVQTAALSSFGVKKIFKNFQVVFSKMAFHMEEGDRWFEQVQSQVDELDEALRKLYTVTETLVASRRDMATSGEQLGKALSMLAACEESTSLSRALSSLTDVTENVSAVYGKQAEVDNSKFSESIYEYIMLISALKDVFGERVRAWQQWQDAQQTLARKRDQKTKIDLSAGGRNERSDQLKGEIEDTVQKMDQLEQHFIELSKAIREEVARFDADRKQDMKKMLVEYMESMIHTHTELLHLWEKFEPEANNIRV	not soluble
MLSEQKEIAMQVSGMTCAACAARIEKGLKRMPGVTDANVNLATETVNVIYDPAETGTAAIQEKIEKLGYHVVTEKAEFDIEGMTCAACANRIEKRLNKIEGVANAPVNFALETVTVEYNPKEASVSDLKEAVDKLGYKLKLKGEQDSIEGR	soluble
MLSIREYLEAGETTISNLLFDHYQKIGLKDDEFLFLLQLFRSQNAGDLFPDLMAIAETMGKTPDTIYKLLNQLVSRGFIRIETQQNQKGQMMDTYDLLPVFQKIQLFLQTSKEKQVVANHEDEIKQLYQGFEKEFGRPLSPIELEMIGQWLNTDHYSPELIRLALREAVLNQAYSLKYIDRILLAWERKNITTKEQVAADQKKRKDSMIQNEIEQQGQTQESLPKVTLHNWLNPEDSE	soluble
MLSRKKTKNEVSKPAEVQGKYVKKETSPLLRNLMPSFIRHGPTIPRRTDLCLPDSSATAFSASGDGIVSRNQSFLRTAIQRTPHEVMRRESHRLSAPSYLVRSLADVPRECGSSQSFLTEVNFAVENGDSGSRYFFSDNFFDGQRRRPLGDRAQEDYRYYEYNHDLFQRMPQSQGRHTSGIGRVTATSLGNLTNHGSEDLPLPPGWSVDWTMRGRKYYIDHNTNTTHWSHPLEREGLPPGWERVESSEFGTYYVDHTNKRAQYRHPCAPSVPRYDQPPPITYQPQQTERNQSLLVPANPYHTAEIPDWLQVYARAPVKYDHILKWELFQLADLDTYQGMLKLLFMKELEQIVKLYEAYRQALLTELENRKQRQQWYAQQHGKTFLS	soluble
MLSVEKFRVGERVVWIGVIFSGRVQGIAFAFDRGTLMKRIHDLAEHLGKRGVSISLDVQPSDYPEKVFKVLIGELDNASFLRELSFEGVTPFEKKVYEWLTKNVKRGSVITYGDLAKALNTSPRAVGGAMKRNPYPIVVPCHRVVAHDGIGYYSSGIEEKKFLLEIEGVKEWTS	soluble
MLTEEKVLAALNRVKDRDLNKSIVETGGIRELKISGANVSVKVALAQTGTREQMEIQQEIVNVLKGEGAESVGLRFDQLDETEIEKLGGLPKQEFHGPPLLHPNTSTTFIAVTSGKGGVGKSTVSVNLATTLARLGKKVGIIDADIYGFSVPDMMGIEERPKVVGEQIFPVERFGVKVISMGFFVEDNAPVIWRGPMLGKMLNNFFAEVEWGDLDYLILDLPPGTGDVALDIHTMLPHSKEILVTTPHATAAFVAARAGAMALKTHHEIIGVVENMAYFESKITGEKEYVFGQGGGERLAEELKTEVLGRIPLGQPEIDEDDFAPSVYGATHPIGEIYTAIAKRVIDKTTLEHHHHHH	soluble
MLTERQLLIFRAIIDHFTWTIQPVGSKNLLKEKSLPYSSATIRNEMGVLEEYGFIEKTHSSSGRVPSEKGYRFYVDYLLQPKKLDKSDRQMIRSFFSENYYEMEGLIQNSALMLSDLTNYTSILLGPEATKNHLSGFRFVPINNFQAMLILITDQGHVDNHLVTIPEGTTLSDIERMVNILNERLVGLSLDDLKVQIPMEVKELLGKHVRNYESFMHVFSDSFAQASQQKVYFGGKTNILNQPEFHDINKVREMLHLMEEEQDVYELFRDIPDGLQVKIGRENNNSLMEDCSIITATYNIAGERVGGIVLLGPTRMEYSRMMGLVDVMSRDLTDVLTKLYRDNQN	not soluble
MLTFALTIVRAGETQYNRDKLLQGQGIDTPLSDTGHQQAAAAGRYLKDLHFTNVFVSNLQRAIQTAEIILGNNLHSSATEMILDPLLRERGFGVAEGRPKEHLKNMANAAGQSCRDYTPPGGETLEQVKTRFKMFLKSLFQRMFEEHGSALSSVPSEADQPVIAGLADDGAQNVPVHALMVSHGAFIRISVRHLVEDLQCCLPAGLKMNQVFSPCPNTGISRFIFTIHREESVLRATRIQGVFINRKDHLEEVKNSDLEHHHHHH	soluble
MLTGLKIAVIGGDARQLEIIRKLTEQQADIYLVGFDQLDHGFTGAVKCNIDEIPFQQIDSIILPVSATTGEGVVSTVFSNEEVVLKQDHLDRTPAHCVIFSGISNAYLENIAAQAKRKLVKLFERDDIAIYNSIPTVEGTIMLAIQHTDYTIHGSQVAVLGLGRTGMTIARTFAALGANVKVGARSSAHLARITEMGLVPFHTDELKEHVKDIDICINTIPSMILNQTVLSSMTPKTLILDLASRPGGTDFKYAEKQGIKALLAPGLPGIVAPKTAGQILANVLSKLLAEIQAEEGK	soluble
MLTIHTKLISAMITQSLKDHPIETCGIIAGLAGSNLPLRLIPMRNVAQSENFFMFDPQQQLQVWKEMSARHEEPVVIYHSHTGSEAYPSRSDVELAAEPQAHYVIIPTCSPHKEEIRSFRIVDQMVIEERVQIVRQYQPELEFQMMVALEHHHHHH	not soluble
MLTIPEKENRGSKEQEVAIMIDALADKGKKALEALSKKSQEEIDHIVHQMSLAAVDQHMVLAKLAHEETGRGIYEDKAIKNLYASEYIWNSIKDNKTVGIIGEDKEKGLTYVAEPIGVICGVTPTTNPTSTTIFKAMIAIKTGNPIIFAFHPSAQESSKRAAEVVLEAAMKAGAPKDIIQWIEVPSIEATKQLMNHKGIALVLATGGSGMVKSAYSTGKPALGVGPGNVPSYIEKTAHIKRAVNDIIGSKTFDNGMICASEQVVVIDKEIYKDVTNEFKAHQAYFVKKDELQRLENAIMNEQKTGIKPDIVGKSAVEIAELAGIPVPENTKLIIAEISGVGSDYPLSREKLSPVLALVKAQSTKQAFQICEDTLHFGGLGHTAVIHTEDETLQKDFGLRMKACRVLVNTPSAVGGIGDMYNELIPSLTLGCGSYGRNSISHNVSATDLLNIKTIAKRRNNTQIFKVPAQIYFEENAIMSLTTMDKIEKVMIVCDPGMVEFGYTKTVENVLRQKTEQPQIKIFSEVEPNPSTNTVYKGLEMMVDFQPDTIIALGGGSAMDAAKAMWMFFEHPETSFFGAKQKFLDIGKRTYKIGMPENATFICIPTTSGTGSEVTPFAVITDSETNVKYPLADFALTPDVAIIDPQFVMSVPKSVTADTGMDVLTHAMESYVSVMASDYTRGLSLQAIKLTFEYLKSSVEKGDKVSREKMHNASTLAGMAFANAFLGIAHSIAHKIGGEYGIPHGRANAILLPHIIRYNAKDPQKHALFPKYEFFRADTDYADIAKFLGLKGNTTEALVESLAKAVYELGQSVGIEMNLKSQGVSEEELNESIDRMAELAFEDQCTTANPKEALISEIKDIIQTSYDYKQ	not soluble
MLTLNYYVEITATPQRVWRVLTDAELYKRWAQAFSPQSQFEGEWEEGSDITFFDPDMGGTRAVIDSVQPLHRLEFHHVAIFNPDNRQQLDADIAAKWIGSREIYQIDTEDERLLLNITIHTHSDFVSMFNNGWEKALPLIKSICEETDSQLEHHHHHH	soluble
MLTMSKAVESLQRFLMPKAGEPHDVRMLYLIESEHNNGRAMWNDRHSVAISAGDEVSFQTYFNAFPASYWRRWTQLDNVILRVEVTGTARVDVFRTKIDGASYAEQGQVVSDGVVEFDLSLAPFEDGGWLWFYVTAETDVTFKAGWYAPQAPQPQVMPDGSQVGPFDKRVTVGIPTFNRPTDAVAALTALSEDPEVDAVIDAVIMPDQGNKHPADEPGYKEATEHFGDRFFEFRQGNLGGSGGYSRIMYEALGGVDGTKPAGAAQSPYILYMDDDIAIEPDSVLRALQVARYAKSPILVGGQMLSLQERSHLHSMGEVVDRNIFMWTSAPFVHYDHDFAKYPLSDRPSPDAPSDRPKTEDLHRRIDVDYNGWWMCMIPRVVAEQIGQPLPLFIKWDDAEYGLRAGNAGFATATWPGVAIWHLAWSDKDDAIDWQAYFHLRNRLIVGAIENGNPAGMVRSMQKATLKHLLCLEYSTVAVQNEAMKDFLAGPSHLFDILETSLPHINALRKNYSDAVVLPSAADLPRPSGAPGVPTVYNLSGPLAPVKKVGWLLKGIKHTLSKENPQHHDVPQANLAPINARWFSLSRLDGATVSTADGRGVVYRKRDRAQAKELLQESYRLQKEVAANFDRLREEYRAAHKELTSREAWAKIFEEPQGAEES	not soluble
MLTPISIEKEHIRLINLLHFINEQNRWFTIKELSDYLQVADKTVRKYLKLLEDEIPPSWNLLVQKGKGIYLKKPLNESLSFVESKILRKSLNLQICEELVFKKNSMQSLAQKLHLQVGALYPIINQINYDIQSSHLNIKKKPLEISGREQDVRVFMLRLYCNIPNDYWPFPYINKQNITDLINKMEKILNVQMYTYSKHKLCVLFAITISRLLSGNTIDNVSGLILVNKNDDHYKTVASITSELQNSFGVTLHETEISFLALALLLSLGNSITTDSNKTLTSYKKTIMPLAKEITKGIEHKLQLGINYDESFLTYVVLIIKKALDKNFIQYYNYNIKFIRHIKQRHPNTFNTIQECISNLNYTVYSHFDCYEISLLTMHFETQRMLFKNNPKKIYVYTSQGCIHREYISALLEKRYNGLIKIVRNTIINLTNESLQDMEIDIIISNVNLPIKNIPIVQISEFPTERDFHEIKKII	not soluble
MLTRCQARLLGLTSGEDGGASGSSTSSVPQSPTGVATSGLPRVSGYSIACEASSATSAKPGDPPPFIRRLSLAATSSSSASTAARGCRTNSFFEPSASASKAALHVNSGSGGDGGGGRARLGARPTDAPLSKAQAAIDYWTAASTTAGPSIWFAKDSASPWRALHVSSPKAAVHVTGSFGATLKSADGSSLAGCSARLTAAQLRVRWCGVTRNCSSLHASTRATANGGGAPRASANSVHGVHTAQLSIAACPASTPPRTEFVIEARAGIATSGGDSTGVAQQTDRALAPLNVASRRSLALFTSPFYADVAAPALSASAAALGATEAAALLPVMHQISTQRAAAAALALRQRKEDVRAQRQRRICHEVHNQVYMKAHEVRMRLLFGLSGTDSDAATPAPSGTLAQGHAVAPSAPSKAALGEDHIAADEEAYLQSLNPSKSDEEAKVLRVVASIDAALRRHLASAYKDASQPTFPSESSSADQRVRAADAVADHHHHHHFTDGFAARQPAILEAVIADATRRVESFTGELLPYQQEGVRWLLRLTAVEHMGGILADDMGLGKTAQTVVYLSCYKDMVERVVQGLLEELEQRHARLCQRALGLTVTATGSGALAREAGSVEEGEMPSWLTWCAEATAKGEYISRRTEGRLQRSSSTIQPLMRGVAHGDSIAASAPLAATVEPASTAATPELAAARAWWLHKTCEAGEAMAVAAGGGQGRGRHSCG	not soluble
MLTRLAAVLEERKNAAPDSSYVASLYHKGLNKILEKVGEESVETIIAAKDAAASGDCQDLIYETADLWFHSLVMLSALGQHPQAVLDELERRFG	soluble
MLTSDPSESTAHLQRTISNLSARNAKLAELLKASRDKLSILQDQLEDLAAPPSTYGTFLEFSGGRETAEVFTAGRHMRLRISPDVEKAELVPGVQVRLGEASQVVEVCDISTTGQLATLVELLADNRGLICDHTGEERVVKLAAALTEGVDKLPKAGDTLLVDPRAGYAFEVIPKTEVSTLA	soluble
MLTTDSLKRLWIFSFDRTLTAAGACYSKARLHRVTRQFLEELAALPGHRVAVLSSRPLDDLVSRVPIEGIYLGGSCGTEWHIPGGESMTLSGKPKDMLMETRDALLPTLREVADLPGVELEDRRWSAALHTQEANTKARQTLFARLAAVLKGWRVALYRNTTMVEIQFLPEITMAFGAQALCRFLGYRGDVVCAGSDENDATALRWALNQGGTALSLGRDPLVPGARPVVDVRSLARHVRDLAGIDEHHRTRMAGRRLCNAALEHHHHHH	not soluble
